These results are taken from patent publication US20200131227A1, “POLYPEPTIDE WITH TUMOUR BINDING ACTIVITY” (RUPRECHT-KARLS-UNIVERSITÄT HEIDELBERG, priority 2017, published 2020).

Where a SMILES comes first, the peptide text is derived from it. Bridges are numbered along the chain shown (N, C = ends). The star is where a group is joined. DOTA = O=C(O)CN1CCN(CC(=O)O)CCN(CC(=O)*)CCN(CC(=O)O)CC1

Series [1] is described as follows: Biodistribution, Capan-2 xenografts. The series is classed as in vivo, mice. Conditions: Balb/c nude, mouse, tumor (Capan-2 xenograft), iv, 1 MBq, total radioactivity; after 1 hour (highest). On the procedure:
6 to 8 week old Balb c/c nude mice (Charles River Lab.) were inoculated with 5*10^6 Capan-2 cells in 100 μl Opti-MEM medium. After 4 to 6 weeks the tumor has grown 10-15 mm in diameter. For small animal PET imaging 25 MBq of the ^68Ga-labeled peptide (2 nmol) was injected into the tail vein.
For biodistribution assays 1 MBq of ^177Lu-labeled peptide was injected into the tail vein of each mouse. After different time points each animal was sacrificed. Peripheral blood, spleen, liver, intestine, kidney, heart, lung, brain, muscle, and tumor were removed and weighted. Radioactivity was measured in a gamma counter and expressed as injected dose per gram (% ID/g).

A further series has as its system carcinoma cell lines. Kind of series: In vitro binding of radiolabeled peptides to several carcinoma cell lines. The format is cell-based, human. Particulars: after 240 min (FIG. 17C). An outline of the steps:
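Cells seeded 48 h were incubated with ^125I-labeled peptide in serum-free medium for 10 or 60 min, alone or with unlabeled peptide (10^−4 to 10^−11 M); HNO97 kinetics, efflux and internalization (37° C and 4° C, acid strip) used ^177Lu-DOTA-SFITGv6. Gamma counting gave % applied dose per 10^6 cells.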

Series [2] in a line: Biodistribution, HNO97 xenografts. Conditions: Balb/c nude, mouse, in vivo, iv, 1 MBq, total radioactivity.

Turning to `CC(C)C[C@@H]1NC(=O)[C@H](CC(=O)O)NC(=O)CNC(=O)[C@H](CCCNC(=N)N)NC(=O)CNC(=O)[C@H]([C@@H](C)O)NC(=O)[C@@H](NC(=O)[C@H](CCCNC(=N)N)NC(=O)CNC(=O)CN2CCN(CC(=O)O)CCN(CC(=O)O)CCN(CC(=O)O)CC2)CSSC[C@@H](C(=O)N[C@@H](Cc2ccc(O)cc2)C(=O)N2CCC[C@H]2C(=O)N[C@@H](CC(=O)O)C(N)=O)NC(=O)[C@H](CC(C)C)NC(=O)[C@H](CCCNC(=N)N)NC(=O)CNC1=O` [^177Lu-DOTA-SFLAP3, metal not drawn] ({DOTA}-GRCTGRGDLGRLCYPD-NH2; disulfide 3-13; N-terminus and C-terminus assumed), the tissue uptake – broadly, the share of the injected amount in each gram of the tissue – at 1 h in series [1] came to 4 %ID/g. Moreover, in the series on carcinoma cell lines, the “binding/internalization late in efflux experiment” value was “moderate renewed increase of binding/internalization”. In series [2], the tissue uptake at 1 h was determined as 9.1 ± 1.2 %ID/g and the tissue uptake at 6 h turned out to be 5.8 ± 1.44 %ID/g.
